Test results reported in patent US20250313631A1 (HUMMINGBIRD BIOSCIENCE PTE, published 2025).
Like-named read-outs stand apart in the source and are kept apart here. Values belong to the binder of their own block, whether it stands above or below them.

What was measured:
human CD47 = biological target: T1, human CD47 (human, UniProt Q08722 19-139); experiment: BLI (Octet), His-tagged hCD47 on anti-Penta-HIS biosensor, antibody 1500-46.9 nM
T1 construct: also called hCD47
Description: Finally, the biosensors were incubated for 120 sec in PBS pH 7.2 to obtain the dissociation curves. Kinetic and affinity constants were calculated by global fitting of the association and dissociation data to a 1:1 binding model.

[1] = biological target: T2, recombinant human VISTA (His-tagged) (human, UniProt Q9H7M9 33-194); experiment: ELISA, plate coated with human VISTA
T2 construct: bought soluble protein (Sino Biological); also called hVISTA; human VISTA polypeptide

human B7H7 [2] = biological target: T3, human B7H7 (human, UniProt Q9UM44 23-344); experiment: ELISA, plate coated with the antigen
T3 construct: also called HHLA2
T3 sequence (looked up): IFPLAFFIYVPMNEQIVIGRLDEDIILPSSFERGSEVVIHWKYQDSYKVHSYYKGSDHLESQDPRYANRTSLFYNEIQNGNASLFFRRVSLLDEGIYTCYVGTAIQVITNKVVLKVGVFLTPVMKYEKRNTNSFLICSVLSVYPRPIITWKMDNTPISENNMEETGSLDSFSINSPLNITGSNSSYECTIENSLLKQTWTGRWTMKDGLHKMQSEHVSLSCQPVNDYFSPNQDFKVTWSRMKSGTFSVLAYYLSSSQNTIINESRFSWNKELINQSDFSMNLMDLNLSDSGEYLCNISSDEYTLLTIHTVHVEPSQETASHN

human CTLA4 = human CTLA4 (human, UniProt P16410 36-162); experiment: ELISA, plate coated with the antigen
human CTLA4, sequence (P16410 36-162 limits assumed): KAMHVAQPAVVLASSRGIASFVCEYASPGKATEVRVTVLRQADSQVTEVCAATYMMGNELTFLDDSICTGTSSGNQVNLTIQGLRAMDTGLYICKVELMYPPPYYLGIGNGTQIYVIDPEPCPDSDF

human PD-1 = human PD-1 (human, UniProt Q15116 25-167); experiment: ELISA, plate coated with the antigen
human PD-1, sequence (Q15116 25-167 limits assumed): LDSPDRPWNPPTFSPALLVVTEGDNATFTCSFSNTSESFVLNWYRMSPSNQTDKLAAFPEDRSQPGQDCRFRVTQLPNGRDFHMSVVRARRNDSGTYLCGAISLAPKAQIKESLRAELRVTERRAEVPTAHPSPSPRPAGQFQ

human B7H3 [3] = biological target: T4, human B7H3 (human, UniProt Q5ZPR3 29-461, limits assumed); experiment: ELISA, plate coated with the antigen
T4 construct: also called CD276
T4 sequence (looked up): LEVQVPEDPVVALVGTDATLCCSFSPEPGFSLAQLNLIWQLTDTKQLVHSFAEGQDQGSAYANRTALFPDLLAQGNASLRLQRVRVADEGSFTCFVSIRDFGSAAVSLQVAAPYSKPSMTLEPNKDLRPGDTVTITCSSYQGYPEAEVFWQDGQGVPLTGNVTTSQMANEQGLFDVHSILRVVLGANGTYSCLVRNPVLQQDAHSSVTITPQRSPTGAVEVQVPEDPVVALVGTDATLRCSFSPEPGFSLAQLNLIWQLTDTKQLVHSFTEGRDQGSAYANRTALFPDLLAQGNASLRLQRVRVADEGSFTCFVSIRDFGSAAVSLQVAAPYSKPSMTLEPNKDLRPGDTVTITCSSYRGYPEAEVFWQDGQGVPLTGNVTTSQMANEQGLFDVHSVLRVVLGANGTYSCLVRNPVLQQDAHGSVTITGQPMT

human B7H6 = biological target: T5, human B7H6 (human, UniProt Q68D85 25-262); experiment: ELISA, plate coated with the antigen
T5 construct: also called NCR3LG1
T5 sequence (looked up): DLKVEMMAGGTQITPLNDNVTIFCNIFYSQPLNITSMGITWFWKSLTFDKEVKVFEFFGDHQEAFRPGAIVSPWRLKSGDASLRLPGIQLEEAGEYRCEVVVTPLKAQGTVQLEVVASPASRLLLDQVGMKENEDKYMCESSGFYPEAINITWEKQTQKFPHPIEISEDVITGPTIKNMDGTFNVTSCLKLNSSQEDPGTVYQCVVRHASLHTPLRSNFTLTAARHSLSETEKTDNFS

[4] = biological target: T2, recombinant human VISTA (His-tagged); experiment: antigen-binding ELISA; HMBD-002 in F5, day 30 at 40°C
[5] = biological target: T2, recombinant human VISTA (His-tagged); experiment: antigen-binding ELISA; HMBD-002 in F8, day 10 at 40°C
[6] = biological target: T2, recombinant human VISTA (His-tagged); experiment: antigen-binding ELISA; reference standard run with the day 10 samples
[7] = biological target: T2, recombinant human VISTA (His-tagged); experiment: antigen-binding ELISA; HMBD-002 10 mg/mL in F6, day 0
human B7H3 [8] = biological target: T4, human B7H3; experiment: ELISA, plate coated with human B7H3, antibody titrated
Description: (§1) 384-well plates were coated with 1 μg/ml of target antigen diluted in PBS for 16 hrs at 4° C. […] After washing, plates were developed with colorimetric detection substrate 3,3′,5,5′-tetramethylbenzidine (Turbo-TMB; Pierce) for 10 min.

[9] = biological target: T2, recombinant human VISTA (His-tagged); experiment: antigen-binding ELISA, day 30 at 40°C
[10] = biological target: T2, recombinant human VISTA (His-tagged); experiment: antigen-binding ELISA; HMBD-002 10 mg/mL in F10, day 0
[11] = biological target: T2, recombinant human VISTA (His-tagged); experiment: antigen-binding ELISA; HMBD-002 in F3, day 30 at 40°C
[12] = biological target: T2, recombinant human VISTA (His-tagged); experiment: antigen-binding ELISA; HMBD-002 in F9, day 20 at 40°C
[13] = biological target: T2, recombinant human VISTA (His-tagged); experiment: ELISA, plate coated with human B7H5 (VISTA), antibody titrated
Description: as §1

[14] = biological target: T2, recombinant human VISTA (His-tagged); experiment: antigen-binding ELISA; HMBD-002 10 mg/mL in F4, day 0
[15] = biological target: T2, recombinant human VISTA (His-tagged); experiment: antigen-binding ELISA; HMBD-002 in F9, day 10 at 40°C
human B7H7 [16] = biological target: T3, human B7H7; experiment: ELISA, plate coated with the antigen; remark: listed apart in the source
human B7H3 [17] = biological target: T4, human B7H3; experiment: ELISA, plate coated with the antigen; remark: listed apart in the source

T1 sequence (Q08722 19-139 limits assumed): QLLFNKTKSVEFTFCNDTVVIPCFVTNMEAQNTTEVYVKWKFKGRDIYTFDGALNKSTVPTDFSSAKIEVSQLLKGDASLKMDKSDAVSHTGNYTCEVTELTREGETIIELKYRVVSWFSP

binding result (human B7H7 [2]): no binding (tested: log -7.5 M)
binding result (human CTLA4): no binding (tested: log -7.5 M)
binding result (human PD-1): no binding (tested: log -7.5 M)
binding result (human B7H3 [3]): no binding (tested: log -7.5 M)
binding result (human B7H6): no binding (tested: log -7.5 M)
B2: anti-VISTA clone V4-C26 IgG1 (antibody)
heavy: not shown
light: EIVLTQSPATLSLSPGERATLSCRASSSVGYIHWYQQKPGQAPRPIIYTTSNRATGIPARFSGSGSGTDNTLTISSLEPEDSAVYYCQQWSSYPPITFGGGTKLEVKRTVAAPSVFIFPPSDEQLKSGTASVVCLLNNFYPREAKVQWKVDNALQSGNSQESVTEQDSKDSTYSLSSTLTLSKADYEKHKVYACEVTHQGLSSPVTKSFNRGEC

binding result (human B7H7 [16]): no binding (tested: log -7.5 M)
binding result (human B7H3 [17]): no binding (tested: log -7.5 M)
B4: anti-VISTA clone V4-C27 IgG1 (antibody, V domains shown)
VH: QVQLQESGPGLVKPSDTLSLTCTVSGYSITSDYTWNWIRQTPGKGLEWIGHITYSGSVSYNPSLRSRVTISRDTSKNQFSLKLSSVTAADTATYSCARALYYPWYFDVWGTGTTVTVSS
VL: EIVLTQSPATLSLSPGERATLSCRASSSVGYIHWYQQKPGQAPRPLIYATYNRATGIPARFSGSGSGTDNTLTISSLEPEDSAVYYCQQWSSYPPITFGGGTKLEVKR

More lines, now with the values behind:

B1: anti-VISTA clone 4M2-C12 IgG1 (antibody)
heavy: not shown
light: DIVITQTPAILSTSPGEKVTMTCRASSSVGYIHWYQQKPGSSPKPWIYATSNLASGVPARFSGSGSGTSNSLTITRVEAEDAATYYCQQWSSYPPITFGGGTKLEVKRTVAAPSVFIFPPSDEQLKSGTASVVCLLNNFYPREAKVQWKVDNALQSGNSQESVTEQDSKDSTYSLSSTLTLSKADYEKHKVYACEVTHQGLSSPVTKSFNRGEC
notes: mouse variable regions on human IgG1/kappa constant regions; also called V4; V4pr
binding result (human CD47): no binding (tested: 1500 nM)
EC50 (read off the curve) [1]: ~0.01 nM

B3: V4-C26 hIgG4 (antibody)
heavy: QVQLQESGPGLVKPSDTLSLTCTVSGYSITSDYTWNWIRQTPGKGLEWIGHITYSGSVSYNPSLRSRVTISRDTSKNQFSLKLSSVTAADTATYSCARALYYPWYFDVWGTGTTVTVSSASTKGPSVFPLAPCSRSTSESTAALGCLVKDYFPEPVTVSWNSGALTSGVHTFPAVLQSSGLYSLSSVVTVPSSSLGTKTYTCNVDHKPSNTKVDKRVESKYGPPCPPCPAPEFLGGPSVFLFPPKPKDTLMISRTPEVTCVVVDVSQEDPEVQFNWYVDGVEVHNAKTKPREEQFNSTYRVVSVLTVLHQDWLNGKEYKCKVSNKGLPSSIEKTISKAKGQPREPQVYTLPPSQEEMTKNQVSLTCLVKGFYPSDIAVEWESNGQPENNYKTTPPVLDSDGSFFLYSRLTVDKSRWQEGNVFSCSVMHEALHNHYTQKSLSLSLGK
light: EIVLTQSPATLSLSPGERATLSCRASSSVGYIHWYQQKPGQAPRPIIYTTSNRATGIPARFSGSGSGTDNTLTISSLEPEDSAVYYCQQWSSYPPITFGGGTKLEVKRTVAAPSVFIFPPSDEQLKSGTASVVCLLNNFYPREAKVQWKVDNALQSGNSQESVTEQDSKDSTYSLSSTLTLSKADYEKHKVYACEVTHQGLSSPVTKSFNRGEC
notes: human IgG4 (S228P)/kappa format; also called HMBD-002; HMBD-002-V4C26
EC50 [4]: 0.0223 nM
EC50 [5]: 0.028 nM
EC50 [6]: 0.0253 nM
EC50 [7]: 0.0294 nM
binding result (human B7H3 [8]): no binding (tested: about 3e-8 M)
fold increase in affinity [9]: 1.65 fold
EC50 [10]: 0.0321 nM
EC50 [11]: 0.0227 nM
EC50 [12]: 0.0223 nM
EC50 (read off the curve) [13]: ~0.01 nM
EC50 [14]: 0.0357 nM
EC50 [15]: 0.0305 nM
